Read-outs that look alike come from different tables or passages of the source.
Legend:
[1] = target: P (Human respiratory syncytial virus) (UniProt P03421); conditions: cited from earlier work
[2] = target: P (Human respiratory syncytial virus) (UniProt P03421); assay: ITC; conditions: cited from earlier work
[3] = target: RSV P D95A (untagged, from pP) (human respiratory syncytial virus, strain Long) (UniProt P12579)
[4] = target: RSV P D110A (untagged, from pP) (human respiratory syncytial virus, strain Long) (UniProt P12579)

## M2-1 (from UniProt P04545)
[1]
  Kd: 8.1 nM
[2]
  Kd: 3000 nM

## RSV M2-1 expressed in BSRT7/5 cells, unphosphorylated form (from UniProt P04545 1-194) (natural protein)
[3]
  minigenome activity (firefly luciferase, pM/Luc) in BSRT7/5 cells: 50 % decrease
[4]
  minigenome activity (firefly luciferase, pM/Luc) in BSRT7/5 cells: 50 % decrease
